Reference: patent US20190016816A1 (APTEVO RESEARCH AND DEVELOPMENT, published 2019)

T1: human 5T4 on cells (human, UniProt Q13641 32-420)
T1 sequence: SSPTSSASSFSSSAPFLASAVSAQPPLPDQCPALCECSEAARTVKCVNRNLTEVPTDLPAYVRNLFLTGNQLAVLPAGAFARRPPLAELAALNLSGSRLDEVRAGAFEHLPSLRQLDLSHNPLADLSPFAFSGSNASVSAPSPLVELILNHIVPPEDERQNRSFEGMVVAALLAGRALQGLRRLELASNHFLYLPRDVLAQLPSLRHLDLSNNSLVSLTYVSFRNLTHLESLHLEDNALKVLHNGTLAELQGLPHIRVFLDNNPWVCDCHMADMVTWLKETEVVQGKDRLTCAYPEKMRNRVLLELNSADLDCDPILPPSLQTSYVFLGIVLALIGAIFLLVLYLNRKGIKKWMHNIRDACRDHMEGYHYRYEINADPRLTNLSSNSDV

B1: ALG.APV-210 (bispecific antibody)
chain: EVQLLESGGGLVQPGGSLRLSCAASGFTFSHGSMYWVRQAPGKGLEWVSSISSGSGSTYYADSVKGRFTISHDNSKNTLYLQMNSLRAEDTAVYYCARSSYYGSYYSIDYWGQGTLVTVSSGGGGSGGGGSGGGGSGGGGSDIQMTQSPSSLSASVGDRVTITCRASQSISSYLNWYQQKPGKAPKLLIYAASSLQSGVPSRFSGSGSGTDFTLTISSLQPEDFATYYCQQYYDNLPTFGQGTKLEIKEPKSSDKTHTCPPCPAPEAAGAPSVFLFPPKPKDTLMISRTPEVTCVVVDVSHEDPEVKFNWYVDGVEVHNAKTKPREEQYNSTYRVVSVLTVLHQDWLNGKEYKCAVSNKALPAPIEKTISKAKGQPREPQVYTLPPSRDELTKNQVSLTCLVKGFYPSDIAVEWESNGQPENNYKTTPPVLDSDGSFFLYSKLTVDKSRWQQGNVFSCSVMHEALHNHYTQKSLSLSPGSGGGGSGGGGSGGGGSPSEVQLLESGGGLVQPGGSLRLSCAASGFTFSSYAMSWVRQAPGKCLEWVSAISGSGGSTYYADSVKGRFTISRDNSKNTLYLQMNSLRAEDTAVYYCARYYGGYYSAWMDYWGQGTLVTVSSGGGGSGGGGSGGGGSGGGGSDIQMTQSPSSLSASVGDRVTITCRASQSISSFLNWYQQKPGKAPKLLIYAASSLQSGVPSRFSGSGSGTDFTLTISSLQPEDSATYYCQQTYGYLHTFGCGTKLEIKR
notes: Optimized ADAPTIR scFv-Fc-scFv homodimer with stabilizing disulfide in the 1210 scFv; also called 5T4-CD137 bispecific antibody
B2: biotinylated ALG.APV-210 (bispecific antibody)
chain: B1 chain
notes: also called ALG.APV-210 (biotinylated for FACS detection)

How the values were obtained:
[1] = target: T1, human 5T4 on cells; assay: cell-based or functional assay
[2] = target: T1, human 5T4 on cells; assay: flow cytometry, TF-1 cells, PE goat anti-human Fc
Procedure: A 3-fold titration of ALG.APV-210 construct (ranging from 100 nM to 0.14 nM) was incubated with the human 5T4-expressing cell lines for 40 minutes in FACS buffer at 4° C., washed 3 times, and detected with PE-labeled, goat-anti-human Fc secondary antibody (Jackson ImmunoResearch). Binding of ALG.APV-210 was detected by flow cytometry. All samples were run in duplicates. Nonlinear regression analysis to determine EC₅₀ values was performed in GraphPad Prism 6® graphing and statistics software.

[3] = target: T1, human 5T4 on cells; assay: flow cytometry, JEG cells, streptavidin-PE, normalized MFI of 2 pooled experiments
Procedure: (§1) Prior to the FACS staining, all cell lines were characterized for their 5T4 expression levels using a receptor density kit (Quantum Simply Cellular, anti-human IgG, Bangs Laboratories, Inc). Adherent cell lines were cultured according to their supplier's instructions and were harvested from their cell culture flasks using Trypsin/EDTA, counted in R10 medium in a Burker chamber, and diluted in FACS buffer (PBS+0.5% BSA, 0.05% NaN₃) to a concentration of 4×10⁶ cells/mL. 50 μL (0.20×10⁶) of cell solution was added to a 96-well FACS staining plate (Falcon #351190). Cells were incubated for 20 min in 4° C. with 50 μL of the biotinylated ALG.APV-210 (2× final concentration). The antibodies were added in a serial dilution starting at 20 μg/mL titrating down in a 12 step ½ dilution down to 0.010 μg/mL. Following 2× washing with FACS buffer, cells were incubated for 30 min in 4° C. with 100 μL of a secondary antibody (streptavidin-PE, BD #554061, diluted 1/500). […] Cells were analysed for ALG.APV-210 binding using flow cytometry (FACSVerse) by gating on single cells. MFI values (secondary antibody only subtracted) from 1 out of 2 independent experiments, as well as normalized data and EC₅₀-values of pooled data from 2 experiments were determined and plotted using GraphPad Prism 7, non-linear regression log (agonist) vs. normalized response—variable slope.

[4] = target: T1, human 5T4 on cells; assay: flow cytometry, BxPC-3 cells, streptavidin-PE, normalized MFI of 2 pooled experiments
Procedure: as §1

[5] = target: T2, cynomolgus CD137 on cells (cynomolgus macaque, UniProt A9YYE7 24-254); assay: flow cytometry, CD8 T cells gated from CD3-stimulated cynomolgus PBMC, biotinylated antibody + streptavidin-APC, exp 2, n=3 donors
T2 construct: whole, on cells; also called CHO-K1/cynomolgus CD137 cell line; cynomolgus monkey CD137 on CD3-stimulated primary CD8 T cells
Procedure: Following 48 h of incubation with or without CD3, human and cynomolgus PBMC were harvested, pooled, recounted and diluted in FACS buffer (PBS+0.5% BSA, 0.05% NaN₃) to a concentration of 5×10⁶ cells/mL. 50 μL (0.25×10⁶ cells) of cell solution was added to a 96-well FACS staining plate (Falcon #351190). Following 10 min of Fc-blocking in RT using Beriglobin (hIgG, 200 μg/mL), cells were washed in FACS buffer and then incubated for 1 h in 4° C. with 100 μL of the biotinylated ALG.APV-210 or negative control. […] Cells were analysed for ALG.APV-210 binding using flow cytometry by gating on viable, single cells expressing CD3 and CD8. MFI values (FMO subtracted) from 2 independent experiments as well as normalized pooled data from 2 experiments and EC₅₀-values were determined and plotted using GraphPad Prism 7, non-linear regression log (agonist) vs. normalized response—variable slope, n=6 donors/group.
In ELISA tests, the binding of biotinylated ALG.APV-210 to CD137 was similar to that of the non-biotinylated ALG.APV-210 (0.6 nM vs. 0.7 nM). The binding (EC₅₀) of the biotinylated ALG.APV-210 to its immunomodulatory target CD137 when expressed on activated primary human and cynomolgus CD8 T cells from CD3 stimulated PBMC was assessed and compared between the two species as well as to unstimulated cells. […]

T2 sequence (A9YYE7 entry or part of it): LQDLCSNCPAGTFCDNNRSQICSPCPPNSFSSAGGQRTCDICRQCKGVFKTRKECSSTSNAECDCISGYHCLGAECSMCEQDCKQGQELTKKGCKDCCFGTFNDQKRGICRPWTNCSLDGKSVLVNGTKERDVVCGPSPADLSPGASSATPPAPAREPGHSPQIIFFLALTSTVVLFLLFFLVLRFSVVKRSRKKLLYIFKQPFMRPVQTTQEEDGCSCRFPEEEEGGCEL

| Binder | EC50 (nM), IFNγ release of human CD8+ T cells with HCT116 cells [1] | EC50 [2] | EC50 [3] | EC50 [4] | EC50 (read off the curve) [5] |
| --- | --- | --- | --- | --- | --- |
| B1 | 0.17 nM | 71 nM |  |  |  |
| B2 |  |  | 8 nM | 20 nM | ~0.2 nM |
